Reference: the nanobody polyreactivity screen of Harvey et al. (2022)

Experiment: yeast display, Sf9 membrane polyspecificity reagent, FACS + sequencing; frameworks hold sequencing errors
In short: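 Using colony PCR, genes from sorted yeast display clones were amplified, then sequenced on MiSeq at 2 × 250 and filtered by CDR length. The clones had been stained with 10% biotinylated, detergent-solubilized Sf9 membrane reagent for 1 hour at 4 °C and sorted by FACS into low and high (top ~1%) gates on anti-HA and streptavidin fluorescence. Polyreactivity labels come from the gate of origin.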

Row | Sequence | polyreactivity (PSR sort gate)
1 | QVQLVESGGGLVQAGGSLRLSCAASGSIFQGNAMGWYRQAPGKERELVAAITYSGGSTYYADSVKGRFTISRDNAKNTVYLQMHSLKREDTAVYYCAAFFPSDLVDGYNYWGQGTQVTVSS | low polyreactivity
2 | QVQLVEAGGGLVQAGGSLRLSGAASGYTFGGNAMGWYRPAPGKERELVAGITWTGGTTYYADSVKGRFTISRDNAKNTVYLQMNSLKPEETAVYYCNASLDSQDGDYWGQGTQVTVSS | low polyreactivity
3 | QVQLVESGGGLVQAGGSLRLSCAASGSIFAVNAMGWYRQAPGKERELVAAISWRDTGTYYADSVKGRFTISRDNAKNTVYLQMNSLKPEDTAVYYCAADAQVNPYYPDEYWGQGTQVTVSS | low polyreactivity
4 | PVQLVESGGGIVQAGGSLRLSCAASGSTFVGKAMGWSRQAPGKQREMFAAISRTGGSPYYADSVKGRFSISRDNAKNSVYLQMISLKPEDTAVYYCAEVYGGPYGELDYWGHGTQVTVSS | high polyreactivity
5 | QVQLVESGGGLVQAGGSLRISCAASGSNFRTYVMGWYRQAPGKERELVAAISRRGGSTYYADSVKGLFTISRDNAKKTVYLQMNSLKPEDTAVYYCAAEDEYSLEFSTLDYWGQGTQVTVSS | high polyreactivity
6 | QVQLVESGGGLVQAGGSLGLSCAASGFTFTYYAMGWYRQAPGKERELVASISWRGGSTYADSVKGRFTISRDNAQNTVYLQMNSLTPEDTAVYYCAADGYSYGNYIYDYWGQGTQVTVSS | low polyreactivity
7 | QVQLVDSGGGLVQAGGSLRLSCAASGLTFKRYAMGWYRQAPGKERQLVASITGNGGSSYYADSVKGRFTISRDNAKNTVYLQMNSLKPEDTAVYYCNARRYVRTSQQPLYDYWGQGTQVTVSS | high polyreactivity
8 | QVQLVESGGGLVQAGGSLRLSCAASGSIFPVYAMGWYRQAPGKERELVASISTGGSTYYADSVKGRFTISRDNAKNTVYLQMNSLKPEDTAVYYCAATGWAYGYGYGYWGQGTQVTVSS | low polyreactivity
9 | QVQLVESGGGLVQAGGSLRLSCAASGSTFREYTMGWYRQAPGKERELVAAITNSGGSTYYADSVKGRFTISRDNAKNTVYLQLNSLKPEDTAVYYCAAEVGIVDYDYWGQGTQVTVSS | low polyreactivity
10 | QVQLVESGGGLVQAGCSLRLSCAASGSIIIGNAMGWYRKSPGKERELVAVINGSDGTTYYADSVKGRFTNSRDNAKNTVYLQMNSLKPEDTAVYYCNADFIDPSVYDYNYWGQGTQVTVSS | low polyreactivity
11 | QVQLVVSGGGLVQAGGSLRISCAASGITFGRYAMGRYRPAPGKERELVAAISWSGGSTYYADSVKGRFTISRDNAKNTVFLQMNSLKPEDTAVYYCALEWYYTSYHIRFYRDNYWGQGTQVTVSS | high polyreactivity
12 | QVQLVESGGGLVQAGGSLRLSCAASGRTFYYYAMGWYRQAPGKERELVAAISWSGGRTYYADSVKGRFTISRDNAKNTFYLQMNSMNPEDTAVYYCAADKYYSEFDYWGQGTQVTVSS | low polyreactivity
13 | HVQLVESGGGLVQAGGSLRLSCAASVTFSFYAMGWYTQSPGKERELVAAISSIGDSTYYADSVKGRFTISRDNAKNTVYLQMNSLKPEETAVYYYGVIAVDAYDYYTYDYWRQGTQVTVSS | high polyreactivity
14 | QVQLVESGGGLVQAGGSLRLSCAASGFIFLQYVMGWYRQAPGKERELVAAITSGGSTYYADSVKGRFTISRDNAKNTVYLQMNSLKPEDTAVYFCATDVADNTFYALYGYDYWGQGTQVTVSS | low polyreactivity
15 | QVQLVESGGGLVQAGGSLRLSCAASGSTILRYAMGWYRQAPGKERELVATISRSDDGTYYADYVKGRFTISRDNAKNTVYLQMNSLKPEDTAVYYCGARSWYLYYYWGLGTQVTVSS | low polyreactivity
16 | QVQLVESGGGLLQAGGSLRLSCAASGRIFGRNTKGWYRQAPGKERELVAVISWRGGSTYYADSVKGRFTISRDNAKNSVYLQMNSLKPEDTAVYYCNAKYPFSRRGDYWGQGTQVTVSS | high polyreactivity
17 | QVQLEESGGGLVQAGGSLRLSCAASGGTFYAYAMGWYRQAPGKERELVAAITRSGGRTYYADSVKGRFTISRDNAKNTVYLQMNSLKPEDTAVYYCAADPHHYSGLDYWGQGTQVTVSS | low polyreactivity
18 | QVQLVESGGGLVQAGGSLRLSCAASGRTSRRNAMGWYRQAPGKERELVAAISGSGGRTNSADSVKGRFTISRDNAQNTVYLQMNSLKPEDTAVYYCNVLTRYYLGYDYWGQGTQVTVSS | high polyreactivity
19 | QVQLVESGGGLVQAGGSLRLSCAASGFTFGYYAMGWYRQAPGKERELVAAITWSGGRTYYADSVKGRFTISRDNAKNTVYLQMNSLKPEDTAVYYGAVETLWQGSEYWGQGTQVTVSS | low polyreactivity
20 | QVQLLESGGGLVQAGGSLRLSCAASGFTFEDNAMGWYRKAPGKERELVAADGTNYADSVKGRFTISRDNAKNTVYLQMNSLKPEDTAVYYCARYARQVTPLSIGLYDYWGQGTQVTVSS | low polyreactivity
21 | QVQLVESGGGLFQAGGSLRLSCASSGSIFLIYAMGWYRQAPGKERELVAAITQRGGSTYYADSVKGRFTISRDNAKISVYLQMESLKPEDTAVYYCNARRYVMRYNRFYYWGQGTQVTVSS | high polyreactivity
22 | QVQLVESGGGLVQAGGSLRLSCAASGFTFSRYAMGGYRQAPGKERELVAAISIRGGNTYYADSVKGRFTISRDNAKNTVYLQMNSLKPEDTAVYYCAAAGRYLRYAYWGQGTQVTVSS | high polyreactivity

Row | Sequence | polyreactivity (PSR sort gate)
23 | QVQLVESGGGLVQAGGSLRLSCAASGFTFDWNAMGWYRQAPGKERELVAAISSSTGRTYYADSVKGRFTISRDNAKNTVYLQMNSLKPEDTAVYYCAASLGGRAGNYWGQGTQVTVSS | high polyreactivity
24 | QVQLVESGGGLVQAGGSLRLSCAASGRIFKSYAMGWDRQAPGKERELVAAISRSGGRTYYADSVKGRFTISRDNAKNTVYLQMNSLKPEDTAVYYCAATTIVAPYWGQGTQVTVSS | low polyreactivity
25 | QVQLVESGGGLVQAGGSLRLSCADSGRIFGLNAMGWYRQAPGKEREFVAAIRWRGGSTYYADSVKGRFTISRDNAKNTVYLQMNSLKPEDTAVYYCAADRNLGVSRYGYWGQGTQVTVSS | high polyreactivity
26 | HVQLVESGGGLVQAGGSLRLSCAASGSIFGNYVMGWYRQAPGKERELVAAISWSGGTNYADSVKGRFTISRDNAKNTVYLQMKSLKPEDTAVYYCAALSVWSYYTYYYWGQGTQVTVSS | high polyreactivity
27 | QVQLVESGGGLVQAGGSLRLSCAASGRIFSKNAMGWYRQAPGKVRELVAAISYITGSTYADSVKGRFKISRDNAKNTDYLQMNSLKPEYTAVYYCAASSTWYGYYIYVFRAYDYWGQGTQLTVSS | low polyreactivity
28 | QVQLVESGGGLVQAGGSLRLSCAASGSIFGGYAMGWYRQAPGKERELVAAISSSGGSTYYADSVKGRFTISRDNAKNTVYLQMHSLKPEDTAVYYCASSYHGRSYHLNYWGQGTQVTVSS | high polyreactivity
29 | QVQLVESGGGLVQAGGSLRLSCAASGSIFRNNAMGWYRQAPGKERELVASITRRGGSTYYADSVKGRFTISRDNAKNTVYLQMNSLKPEDTAVYYCAATTQHRYKLNYWGQGTHVTVSS | high polyreactivity
30 | QVQLVESGGGLVQAGGSLRLSCAASGSIFQPYAMGWYRQAPGKERELVAAISIGDSTNYADSVKGRFTISRDNAKNTVYLQMNSLKPADTAVYYCNTTGEYYDYWGQATQVTVSS | low polyreactivity
31 | QVQLQESGGGLVQAGGSLRLSCAASGSIYDGFNMGWYRQAPGKEREFVAAISYGASTYYADSVKGRFTVSRDNAKNSVYLQMNSLKPEDTAVYYCAVYDELYHVLVYWGRGTQVTVSS | low polyreactivity
32 | QVQLVESGGGLVQAGGSLRLSCAASGSTFYKNTMGWYRQAPGKERELVATISSGDSTYADSVKGRFTISRDNAKNTVYLQMNSLKPEDTAVYYCAAASDLPGTGGYDYWGPGTQVTVSS | low polyreactivity
33 | QVQLVESGGGLVQAGGSLRLSCAASGRTLSGYVMGWYRQAPGKERELVATISNGGSTYYADSVKGRFTISRDNAKNTVYLQMNSLKPEDTAVYYCNRYWYRKHSTDPPVRYRPVGYWGQGTQVTVSS | high polyreactivity
34 | QVQLQESDGGLVQAGGSLRLSCAASGSISPQYYMGWYRQEPGKEREFVAISKGTTTYYADSVKGRLTISRVNAKNTVYLQMNSLKPEDTAVYCCAAGRWLQKVHAYWDQGTQVTVSS | low polyreactivity
35 | QVQLVESGGGLVQAGGSLRLSCAASGRIFRQYTMGWNRQAPGKERELVAAITGTRGSTYYADSVKGRFTISRDNAKNTVYLQMNSLKPVDTAVYSCDADYSARYGYWGQGTQVTVSS | high polyreactivity
36 | QVQLVESGGGLVQAGGSLRLSCAASGSTFRYYSMGWYRQAPGKERELVAAITRSGTSTYYADSVKGRFTISRDTAKNTVYLQMNSLQPEDTAFYYCNAVTPYSREYDYWGQGTQVTVSS | high polyreactivity
37 | QVQLVESGGGLVQAGGSLRLSCAASGSIFGHYAMGWYRPAPGKERELVAGISSSSGGRTYYADSVKGRFTISRDNAKNTVYLQMNSLKPEDTAVDYCAAVYSVQVSRRAKYYYWGQGTQVTVSS | high polyreactivity
38 | QVQLVESRGGLVQAGGSLRLSCAASGSNFTLYAMGWYRQAPGKERELGATITISGGGTYYADSVKGRFTISRDNAKNTVYLQMNSLKPEDTAVYYCAVKSIVRRKGYTYYRYDYWGQGTQVTVSS | high polyreactivity
39 | QVQLVESAGGLVQAGGSLRLSCAASGRIFLYNAMGWYRQAPGKERELVAVISSNGGRTYYADSVKGRFTISRDNAKNTVYLQMNSLKPEDTAVYYCAAVQHYVTHMDYWGQGTQVTVSS | low polyreactivity
40 | QVQLVESGGGIVQAGGSLRLSCAASGLIFRRYTMGWYRQAPGKERELVAAIRNSGSSTDYADSVKGRFTISRDNAKNTVYLQMNSLKPEDTAVYYCAKRSARKLTYDSWGQGTQVTVSS | low polyreactivity
41 | QVQLVESGGGLVQAAGSRRLSCDASGRIFGWYAMGWSRQAPGKERELVAAITNSGGSPYCADSVKGRFTISRDNAKNTVYLERKSLIPEDTAVYYCARSFSFYGKRKYDYWGQGTQVTVSS | high polyreactivity
42 | QLQLVESGGGLDQAGGSLRLSCAASRYTMGWYRQAPGKEMELVPAITGGGSTNYADSVKGRFTISRDNAKNTVYLHMNSLKPEDTAVYYCAVDYAVSYAGWVLRYDYWGQGTQVTVSS | low polyreactivity
43 | QVQLVESGGGLVQAGGSLRLSCAASGSTFDWYAMGWYRQAPGKERELVATIRYRGGTSYADSVKGRFTISRDNEKNTVYLQMNSLKPEDTAVYYCNAQLYIFDDSYNYWGFDYWGQGTQVTVSS | high polyreactivity
